In paper PMC8140096, “Structural basis of substrate recognition and thermal protection by a small heat shock protein” (Nature Communications, 2021):

B1: Arabidopsis thaliana plastid small heat shock protein Hsp21 (44-227), N-terminal hexahistidine tag (natural protein)
chain: not shown
notes: Hsp21, Arabidopsis thaliana, UniProt P31170, residues 44-227, without the transit peptide; Alone it is a dodecamer (twelve identical subunits, tetrahedral); In the complex with DXPS it is a single monomer; also called His-Hsp21; Hsp21 dodecamer; source: E. coli BL21 Rosetta 2 (DE3), co-expressed with DXPS-His-FLAG at 37 °C, complex purified (HisTrap, anti-FLAG M2); E. coli BL21 Rosetta (DE3), …
B2: Arabidopsis thaliana 1-deoxy-D-xylulose 5-phosphate synthase (59-717), C-terminal hexahistidine-FLAG tandem tag (enzyme, UniProt Q38854 59-717, looked up)
chain: ASLAEKGEYYSNRPPTPLLDTINYPIHMKNLSVKELKQLSDELRSDVIFNVSKTGGHLGSSLGVVELTVALHYIFNTPQDKILWDVGHQSYPHKILTGRRGKMPTMRQTNGLSGFTKRGESEHDCFGTGHSSTTISAGLGMAVGRDLKGKNNNVVAVIGDGAMTAGQAYEAMNNAGYLDSDMIVILNDNKQVSLPTATLDGPSPPVGALSSALSRLQSNPALRELREVAKGMTKQIGGPMHQLAAKVDEYARGMISGTGSSLFEELGLYYIGPVDGHNIDDLVAILKEVKSTRTTGPVLIHVVTEKGRGYPYAERADDKYHGVVKFDPATGRQFKTTNKTQSYTTYFAEALVAEAEVDKDVVAIHAAMGGGTGLNLFQRRFPTRCFDVGIAEQHAVTFAAGLACEGLKPFCAIYSSFMQRAYDQVVHDVDLQKLPVRFAMDRAGLVGADGPTHCGAFDVTFMACLPNMIVMAPSDEADLFNMVATAVAIDDRPSCFRYPRGNGIGVALPPGNKGVPIEIGKGRILKEGERVALLGYGSAVQSCLGAAVMLEERGLNVTVADARFCKPLDRALIRSLAKSHEVLITVEEGSIGGFGSHVVQFLALDGLLDGKLKWRPMVLPDRYIDHGAPADQLAEAGLMPSHIAATALNLIGAPREALF
notes: 1-deoxy-D-xylulose 5-phosphate synthase (DXPS), Arabidopsis thaliana, UniProt Q38854, residues 59-717, without the transit peptide; also called DXPS; DXPS-His-FLAG; source: E. coli BL21 Rosetta 2 (DE3), co-expressed with His-Hsp21 at 37 °C, purified (HisTrap, anti-FLAG M2); not shown: His6, C-terminal, kept; FLAG, C-terminal, kept

How the values were obtained:
[1] = target: the molecule itself; test: cryo-EM structure; purified Hsp21 without substrate, 1 mg/mL; tetrahedral symmetry imposed, 4.6 Å
[2] = target: B2; test: cryo-EM structure; His-Hsp21 and DXPS-His-FLAG co-expressed in E. coli at 37 °C, purified together (HisTrap, anti-FLAG), 0.7 mg/mL; 3D classification gave free DXPS (4.0 Å) and Hsp21-DXPS (3.7 Å); conditions: both partners purified
[3] = target: the molecule itself; test: as above

| Binder | stoichiometry N [1] | stoichiometry N [2] | stoichiometry N [3] |
| --- | --- | --- | --- |
| B1 | 12 | 1 |  |
| B2 |  |  | 2 |
